Measurements reported in US20240262893A1 (APPLIED BIOMEDICAL SCIENCE INSTITUTE, published 2024).
Residue numbers refer to the chain shown, from its start. Like-named read-outs stand apart in the source and are kept apart here.

Key:
[1] = biological target: T1, SARS CoV-2 spike trimer protein from the parental Wuhan-Hu-1 isolate (extracellular domain, furin-cl (SARS-CoV-2 (Wuhan-Hu-1)))
[2] = biological target: T2, parental receptor binding domain (RBD) protein (amino acids 319 to 541 of the spike protein) with c-terminal … (SARS-CoV-2 (Wuhan-Hu-1), UniProt P0DTC2 319-541)
[3] = biological target: recombinant stabilized spike protein derived from the beta strain (formerly described as the South A (SARS-CoV-2 (B.1.351), UniProt P0DTC2 14-1208))
[4] = biological target: T1, SARS CoV-2 spike trimer protein from …; remark: listed apart in the source
[5] = biological target: T3, SARS-CoV-2 (Wuhan-Hu-1) wild-type (WT) spike protein carried on pseudotyped virus or on live wild-type virus (SARS-CoV-2 (Wuhan-Hu-1), UniProt P0DTC2 14-1273); experiment: cell-based or functional assay
[6] = biological target: T3, SARS-CoV-2 (Wuhan-Hu-1) wild-type (WT) …; experiment: cell-based or functional assay; remark: listed apart in the source
[7] = biological target: T2, parental receptor binding domain (RBD) …; experiment: ELISA, RBD coated, IgG detected with anti-human Fc-HRP
[8] = biological target: S protein of a SARS-CoV-2 delta lineage virus on pseudotyped virus (SARS-CoV-2 (delta lineage)); experiment: cell-based or functional assay
[9] = biological target: T4, SARS-CoV-2 B.1.351 ('SA', beta) variant spike protein on pseudotyped virus or live virus (SARS-CoV-2 (B.1.351), UniProt P0DTC2 14-1273); experiment: cell-based or functional assay
[10] = biological target: T1, SARS CoV-2 spike trimer protein from …; experiment: ELISA, spike protein coated, IgG detected with anti-human Fc-HRP
[11] = biological target: T4, SARS-CoV-2 B.1.351 ('SA', beta) variant …; experiment: cell-based or functional assay; remark: listed apart in the source
[12] = biological target: SARS-CoV-2 spike protein variant 484K on pseudotyped virus (SARS-CoV-2, UniProt P0DTC2 14-1273); experiment: cell-based or functional assay

B1: R2G3 ultralong CDR3 chimeric bovine-human IgG1 antibody (antibody)
VH: QVQLRESGPSLVKPSQTLSLTCAASGFSLSDKAVGWVRRAPGKALEWLGSIDTGGSTGYNPGLKSRLSITKDNSKSQVSLSISSVTSEDSATYYCATVHQKTAEGDKTCPDGYEHTCGCIGGCGCKRSACIGALCCQASLGGWLSDGETYTYEFHVDTWGQGLVVTVSS
VL: QAVLNQPSSVSGSLGQRVSITCSGSSSNVGNGYVSWYQLIPGSAPRTLIYGDTSRASGVPDRFSGSRSGNTATLTISSLQAEDEADYFCASAEDSSSNAVFGSGTTLTVL
For B1, the “EC50 (read off the curve)” value [1] was ~0.01 nM, the “EC50 (read off the curve)” value [2] was ~0.02 nM and the “EC50 (read off the curve)” value [3] was ~0.2 nM. For the same binder, the “EC50 (read off the curve)” value [4] was ~0.4 nM, the “pseudovirus neutralization IC50 (luciferase assay)” value [5] was > 1 ng/mL and the “live SARS CoV-2 neutralization, ng/mL (quantity not given)” value [6] was 0.5 ng/mL. For the same binder, the “pseudovirus neutralization, ng/mL (quantity not given)” value [6] was 0.2 ng/mL and the EC50 [7] was 0.056 nM.

B2: R2D9 ultralong CDR3 chimeric bovine-human IgG1 antibody (antibody)
VH: QVQLRESGPSLVKPSQTLSLTCTASGFSLSDKAIGWVRQAPGKALEWLGSIDTRGNTGYNPGLKSRLSITKDSSKSQVSLSVNSVTTEDSATYLCAIVQQITHKTCPNGYNWFDRCCSWDGTCGDGCCSNRAWPSGNGRADSSIGETYGYEFHVAAWGQGLLVTVSS
VL: B1 VL
B2 was tested, and the “pseudovirus neutralization, ng/mL (quantity not given)” value [8] was 0.32 ng/mL, the “pseudovirus neutralization, ng/mL (quantity not given)” value [9] was 0.33 ng/mL and the “pseudovirus neutralization, ng/mL (quantity not given)” value [6] was 0.26 ng/mL.

B3: R2F12 ultralong CDR3 chimeric bovine-human IgG1 antibody (antibody)
VH: QVQLRESGPSLVKPSQTLSLTCTVSGFSLSDKAVGWVRRAPGKALEWLGSIDTGGMTGYNPGLKSRLSITKDNSKSQVSLSVNSVTTEDSATYYCATVDQKTKNACPDDFDYRCSCIGGCGCARKGCVGPLCCRSDLGGYLTDSPAYIYEWYIDLWGQGLLVTVSS
VL: B1 VL
For B3, the “EC50 (read off the curve)” value [1] was ~0.02 nM, the “EC50 (read off the curve)” value [2] was ~0.03 nM and the “EC50 (read off the curve)” value [3] was ~0.2 nM. For the same binder, the “EC50 (read off the curve)” value [4] was ~0.3 nM, the EC50 [7] was 0.085 nM and the EC50 [10] was 0.05 nM.

B4: RBD F4 chimeric bovine-human IgG1 antibody (antibody, V domains shown)
VH: QVQLRESGPSLVKPSQTLSLTCTVSGFSLSSNGVVWVRQAPGKALEWLGDICSTGGTSFNPALKSRLSIAKDNSKSQVSLSVRSVTPEDTATYYCARSRGYDCYANVDALDYVDAWGQGLLVTVSS
VL: B1 VL
In the case of B4, the EC50 [7] is reported as 0.03 nM and the EC50 [10] is reported as 0.03 nM.

B5: R2B1 chimeric bovine-human IgG1 antibody (antibody, V domains shown)
VH: QVQLRESGPSLVKPSQTLSLTCTVSGFSLSDNNVGWVRQAPGKALEWLGVMHNDGNKGYNPALKSRLSITKDSSKSQVSLSLSSVTSEDTATYYCTRDNARCDSWTYDSCDTWYRNSWHVDAWGQGLLVTVSS
VL: B1 VL
For B5, the EC50 [7] was 0.52 nM and the EC50 [10] was 0.37 nM.

B6: R4C1 ultralong CDR3 chimeric bovine-human IgG1 antibody (antibody)
VH: QVQLRESGPSLVKPSQTLSLTCTASGFSLSDKAVGWVRQAPGKPLEWLGSIDTAENTGYNPGLKSRLSITKDNSKSQVSLSVSSVTTEDSATYYCATVHQKTRKEKNCPDGYIYSSNTASGYDCGVWICRRVGSAFCSRTGDYTSPSEFDIYEFYVEGWGQGLLVTVSS
VL: B1 VL
In the case of B6, the “pseudovirus neutralization, ng/mL (quantity not given)” value [9] is reported as 375 ng/mL and the “pseudovirus neutralization, ng/mL (quantity not given)” value [6] is reported as 99.9 ng/mL.

B7: SKM ultralong CDR3 chimeric bovine-human IgG1 antibody (antibody)
VH: QVQLRESGPSLVKPSQTLSLTCTASGFSLSDKAVGWVRQAPGKALEWLGSIDTGGNTGYNPGLKSRLSITKDNSKSQVSLSVSSVTTEDSATYYCTTVHQETLRSCPDGYIDNSGCTADWGCAALDCWRRRFGYHSTDPSHYTGATYIYTYSLHIDAWGQGLLVTVSS
VL: B1 VL
In the case of B7, the “pseudovirus luciferase assay EC50” value [11] is reported as > 1000 pM, the “pseudovirus luciferase assay EC50” value [12] is reported as > 1000 pM and the “pseudovirus neutralization, ng/mL (quantity not given)” value [9] is reported as > 1000 ng/mL.

B8: R2C3 (R5C1) ultralong CDR3 chimeric bovine-human IgG1 antibody (antibody)
VH: QVQLRESGPSLVKPSQTLSLTCTASGFSLSDKPVGWVRQAPGKPLEWLGSIDTAENTGYNPGLKSRLSITKDNSKSQVSLSLSSVTTEDSATYYCATVHQKTRKEKSCPDGYLYSSNTGRGYDCGVWTCRRVGGEFCSATGDWTSPSEEDFYEFYVDTWGQGAPVTVSS
VL: B1 VL
For B8, the “EC50 (read off the curve)” value [3] was ~0.3 nM, the “EC50 (read off the curve)” value [4] was ~0.3 nM and the EC50 [10] was 0.39 nM.

B9: R2D6 chimeric bovine-human IgG1 antibody (antibody, V domains shown)
VH: QVQLRESGPSLVKPSQTLSLTCTTSGFSLSSYAVGWVRQAPGKALEWVGDIDYVGNTDYNPALKSRLSITKDNSKSQVSLVVSSVTAEDAATYYCAKYSGAYAYAACNYYGWRCAWESYIDAWGQGLLVTVSS
VL: B1 VL
In the case of B9, the EC50 [7] is reported as 0.57 nM and the EC50 [10] is reported as 0.41 nM.

B10: SKD ultralong CDR3 chimeric bovine-human IgG1 antibody (antibody)
VH: QVQLRESGPSLVKPSQTLSLTCTASGFSLSDKAVGWVRQAPGKALEWLGSIDTGGNTGYNPGLKSRLSITKDNSKSQVSLSVSSVTTEDSATYYCTTVHQRTSEKRSCPGGSSRRYPSGASCDVSGGACACYVSNCRGVLCPTLNEIVAYTYEWHVDAWGQGLLVTVSS
VL: B1 VL
In the case of B10, the “pseudovirus luciferase assay EC50” value [11] is reported as > 1000 pM, the “pseudovirus luciferase assay EC50” value [12] is reported as > 1000 pM and the “pseudovirus neutralization, ng/mL (quantity not given)” value [9] is reported as > 1000 ng/mL.

B11: RBD A2 chimeric bovine-human IgG1 antibody (antibody, V domains shown)
VH: B4 VH with S15L, T17I
VL: B1 VL
B11 was tested, and the EC50 [7] was 0.03 nM and the EC50 [10] was 0.024 nM.

B12: SR3A3 ultralong CDR3 chimeric bovine-human IgG1 antibody (antibody)
VH: QVQLRESGPSLVKPSQTLSLTCTISGFSLSSYAVLWVRQAPGKPLEWLGSIDTAENTGYNPGLKSRLSITKDNSKSQVSLSVSSVTTEDSATYYCATVHQKTRKEKNCPDGYIYSSNITSGFDCGVWICRRVGSAFCSRTGDYTSPTELDIYEFYVEGWGQGVPVTVSS
VL: B1 VL
In the case of B12, the binding result [7] is reported as “binds” and the EC50 [10] is reported as 0.037 nM.

B13: RBD C6 chimeric bovine-human IgG1 antibody (antibody, V domains shown)
VH: B4 VH with K43R, A44P, T54N, K75E, S81T, N106Y, D108Y, Y112T
VL: B1 VL
B13 was tested, and the EC50 [7] was 0.03 nM and the EC50 [10] was 0.03 nM.
